Target: A-183-CS-Z-fusion peptide, P38507

B1: Factor VIIa (protein)
chain: ANAFLEELRPGSLERECKEEQCSFEEAREIFKDAERTKLFWISYSDGDQCASSPCQNGGSCKDQLQSYICFCLPAFEGRNCETHKDDQLICVNENGGCEQYCSDHTGTKRSCRCHEGYSLLADGVSCTPTVEYPCGKIPILEKRNASKPQGRIVGGKVCPKGECPWQVLLLVNGAQLCGGTLINTIWVVSAAHCFDKIKNWRNLIAVLGEHDLSEHDGDEQSRRVAQVIIPSTYVPGTTNHDIALLRLHQPVVLTDHVVPLCLPERTFSERTLAFVRFSLVSGWGQLLDRGATALELMVLNVPRLMTQDCLQQSRKVGDSPNITEYMFCAGYSDGSKDSCKGDSGGPHATHYRGTWYLTGIVSWGQGCATVGHFGVYTRVSQYIEWLQKLMRSEPRPGVLLRAPFP
  cleavage of the fusion peptide by FVIIa (HPLC, SDS-PAGE, N-terminal sequencing, mass spectrometry): the fusion peptide was cleaved after the putative P1 arginine only under enzymatically favorable conditions (sTF, pH 8.5); no cleavage was observed at pH 6.0 and the absence of sTF

Source: patent US20040087767
